{"source": "paper PMC12724329", "target": "gcKPNB3-FLAG (grass carp importin beta 3, FLAG-tagged) (grass carp)", "test": "co-IP; co-IP of IRF3 with gcKPNB3 from GCRV-infected CIK cells with gcDDX56 overexpressed (+, 4 µg; ++, 8 µg plasmid) or knocked down by siRNA; bands quantified with ImageJ", "data": [{"substance": "gcIRF3-HA (grass carp IRF3, HA-tagged) (natural protein)", "values": [{"measurement": "fold change of the interaction on gcDDX56 knockdown against the siRNA control", "value": 3.23, "unit": "fold"}]}]}
